Results from patent publication US20060058231A1.

Columns and labels:
Experiment in all cases: ELISA-like plate assay, captured BMP-7 from conditioned media, receptor-Fc detection
[1] = biological target: T1, BMPRII receptor-Fc fusion (UniProt Q13873)
T1 sequence (looked up): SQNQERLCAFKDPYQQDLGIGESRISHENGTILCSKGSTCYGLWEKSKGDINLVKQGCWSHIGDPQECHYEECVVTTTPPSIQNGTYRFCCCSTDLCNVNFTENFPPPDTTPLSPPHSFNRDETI

[2] = biological target: T2, BMPRIb receptor-Fc fusion (UniProt O00238)
T2 sequence (looked up): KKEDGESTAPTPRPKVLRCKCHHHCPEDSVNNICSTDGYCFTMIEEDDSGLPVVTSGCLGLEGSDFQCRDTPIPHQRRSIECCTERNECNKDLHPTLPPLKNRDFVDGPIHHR

[3] = biological target: ActRIIa receptor-Fc fusion (UniProt P27037)
[4] = biological target: BMPRIa receptor-Fc fusion (UniProt P36894)
Chain of BMPRIa receptor-Fc fusion (P36894 24-152 limits assumed): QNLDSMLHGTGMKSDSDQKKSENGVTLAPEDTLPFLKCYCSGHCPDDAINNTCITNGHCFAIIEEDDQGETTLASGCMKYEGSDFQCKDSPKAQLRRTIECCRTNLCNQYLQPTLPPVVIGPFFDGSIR

Chain of ActRIIa receptor-Fc fusion (P27037 20-134 limits assumed): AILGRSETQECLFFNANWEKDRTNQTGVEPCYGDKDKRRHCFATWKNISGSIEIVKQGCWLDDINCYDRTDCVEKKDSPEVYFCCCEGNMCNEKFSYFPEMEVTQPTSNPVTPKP

| BMPRII binding (relative to wild type = 1.0) (relative to wild type) [1] | BMPRIb binding (relative to wild type = 1.0) (relative to wild type) [2] | ActRIIa binding (relative to wild type = 1.0) (relative to wild type) [3] | BMPRIa binding (relative to wild type = 1.0) (relative to wild type) [4] | Substance |
| --- | --- | --- | --- | --- |
| 0.09 | – | – | – | BMP-7 variant F93A (from UniProt P18075 293-431 at identity 0.99)) (ligand) |
| -0.04 | -0.08 | – | – | BMP-7 variant F117S (from UniProt P18075 293-431 at identity 0.99)) (ligand) |
| 0.07 | – | – | – | BMP-7 variant L21E (from UniProt P18075 293-431 at identity 0.99)) (ligand) |
| -0.01 | – | 0.01 | -0.02 | BMP-7 variant L115A (from UniProt P18075 293-431 at identity 0.99)) (ligand) |
| -0.13 | -0.51 | – | – | BMP-7 variant R48E (from UniProt P18075 293-431 at identity 0.99)) (ligand) |
| 0.08 | – | – | – | BMP-7 variant S77H (from UniProt P18075 293-431 at identity 0.99)) (ligand) |
| 0.01 | – | 0.07 | 0.03 | BMP-7 variant W52P (from UniProt P18075 293-431 at identity 0.99)) (ligand) |
| 0.03 | – | 0.09 | – | BMP-7 variant W55A (from UniProt P18075 293-431 at identity 0.99)) (ligand) |
